# Assay results published in the domain aggregation screens of Martell et al. (2025).
# Assay: soluble fraction after stress (log2 fold change); higher = more stays soluble; pooled small domains, quantitative proteomics
# Settings: stress: 50 degC
# In short: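 Quantitative proteomics served as the high-throughput read-out for pooled custom libraries of small protein domains. Each was stressed at 50°C. Aggregation propensity is expressed as the base-two log fold change in soluble protein after stress. A higher value means a larger share of the protein remains in solution.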
row,Sequence,soluble fraction (log2)
1,HMWAVDFVLLDKDDQRIGNAVAYRDDRTKGMDEEVYRTVPEEELYASTGIQKQIFNSIYQLMAWKK,0.0151
2,HMPTTTFENLPDAKKKTIIAALLKEFSQSPLSKAQVAPIVKESQIARGAFYKYFVDLTDAYTYLYRQ,-0.204
3,HMSVDVEGNQRIPTEQVLSELRDVGVSFGKRVSGLNADTIRNQMIINNDEIAWLGVNVRGSRVYVEITERI,-0.018
4,HMSDSLVLTGVAYVDGKPVVTLFDKVKKESLVVTDQPNLKGWTLVEATQSSDIKRATAKVNIGGEPVSIRY,0.117
5,HMSKEEAIQAMKEGKKVTHRFFSSDEWMTIENGFLLLEDGVRISLEDFFNFRSDSLWDNGYELYNPH,-0.162
6,HMTDEEFSRIVKYTAVRYGINLYHKKVMVEGRLSNYLAANGFKSYTEYMDRVEADYTGQEAQNLINILTT,-0.258
7,HMDEVVVVERGGVQITMSEIDAKIMELPVDVRPSYLDSPERLQNFVSNLLLEKQAAQLKSQY,-0.153
8,HMEQVPEAVGRRVRQARSDRGWTLDQLAERSEVSRRMIVNVEAGTSNASIATLLRLATALNVGLAELVA,-1.41
9,HMGNLVDGINKKLTHVRDSLPEGYTLDEFKSAFQQQYPAAYDAYEGDKGKQFDKWLGNVIQSLPKK,0.161
10,HMETFGLSQRELQILSQLHKGQPLKEFAASLFITESTLKTHLSAIYRKMSVKNRVQAIEKAKQSGL,-1.24
11,HMVSKQVTVNGIQYYQYTVQKSEGFYAISTKFGVTQDDIILANPSTKEGLRVGQEILIPIKT,-0.186
12,HMDIYLTAFKTTSNQVTLNGIARSDLIISEFMRDIRDAKLFGEPVLQVIQNKNLNNVQARVFELVVPL,-0.263
13,HMTLSDIGHAVRTRRTELGLSQVQLARLSGLSRQTLVGLENGTLNDLGINRVAQLLAVLGLDAP,-0.827
14,HMKIDLKQIEGVLDELAKVKGSLITILQKTQETYGYLPKEAIIYISERTGIAESEIMGVATFYTQFRL,-0.105
15,HMVMTTVPEVLGMDIRTAASMLTGKNLKYDYDLVESDKPKDEVIEQDQAKGTEVPEGTVVKLKVSKGPA,0.0583
16,HMNATPDMERYWASSAAEGRALEPLYAVSRGDGGEPLWWSPSRAQAERMAREEGGPLTVDRIDPP,-0.0411
17,HMVAPKTEEQQKMFLESIVTKRQAETLIEKYPNIVQDIIDGTDNVDLANLKGIGEHTYNLIKEKVLSNY,0.279
18,HMNNQILYERLRDLRERNHFTQAFVSSKLNIGRATYSNYERGKRTPSLDVIMDLASFYKVPFTYF,-0.0166
19,HMIFEETVFKDIAFGPKNMGLSEAEIKRRVYETAENIGLSQELMERSPFELSGGQKRRVAIAGVMAMEP,0.192
20,HMKVLNVLESEIVRLFKQGQQKDNIRDNIYKTHGQHYNNKKSFNVVFGRKWNSLLEQGFLES,-0.595
21,HMSQKVQEDFLGDIRKNEIAVTVFLINGVKLQGVITWFDDASILLRRDGHTQLIYKHAVSTIMPGVAVDI,-0.118
22,HMGNIALAIARFREMIAEDPNLQPVRLHLAMALMADHQDEAARGQLEKLRSDQLPDDIRKIVDDALAALR,-1.13
23,HMVMTTVPEVLGMDISKAASLLTGKNLDYDYDLVESDKPKDQVIEQDVVKGTEVPEGTVIHLKVSKGPA,0.228

row,Sequence,soluble fraction (log2)
1,HMIDEQDLKKYILISTSVEELTDYLGATDRMLYDYLYSLKHVGQYWQLNERFLLDLYKLPNLVIVDKEDLE,-0.136
2,HMDVTDRLARRLQGLRSAQGLSLDALAARSGVSRSNISLIERGQSSPTATVLDKLSAALGVTLAALFEEP,-0.474
3,HMGIEIKLLMSFMTDSGRKVSLFVTDPREDVTETEIKQVMDLIIEKNIFAPNGEDIVSAKEAKIVQT,-1.25
4,HMPRVLSSYTLTLRHQPTAEAVALVRTLLSPAGSVEVKEDGRTLVVRDELAALSRIVGALRSFDH,-0.404
5,HMTTEIVRMKKDVKIGQEITAKDIEVVEVGAYNLPDEVIRSSEEVVGKYVSSELLKGEYVLPSKISDTP,0.0729
6,HMKEILTNESIIQFVKDKVSEEQIIYKINNSPIDFKLDVNSMVSLAKQNVSSTIIIAMENAMNN,-0.256
7,HMTGMEASLSKLLQGEQFADLRKALIDKGIRKLEAFKRLNLWVFMNRNRLYSIGQRQTVYSTLQRALASE,0.0329
8,HMSVKYLQIYHAIREKILSNEYAINQQLPDEITLTKEFNSSRMTVKKALDLLVSEGLIFRKRGQGTFVLSR,-2.27
9,HMSYPEIFQSLTEREQKIADMIAEHLSNKEIAEKMFLSEGTIKQYINQIYSKLQITGDIRNKRKQLIELFH,-1.16
10,HMKDYKTIFQELIQKKHKTSPIYKSYEYNDMFKAEVYVNDKSFADGIGKSKKEAETDAAKKALEKIEMA,0.0966
11,HMLKPVVLLGARGLTDAVEKEVERALDEHGLIKIHVPSDDREERDEIYTTLADKLNAARIQAIGKMLVLW,-0.162
12,HMVEYIENINLSEKQKFIAHEILKEIRGRAIFLRDVGLDYLNLSRKAGTLSGGEAQRIRLATQIGSA,0.226
13,HMDTSISHLVGRTGEAVTDLRPAGTVMIDGELYDARATEGFIEKGEIVKAIKYQYGQLNVRRVSK,0.0877
14,HMSGKGEFDQLLRSGEYVQAFQRANANGNVTLRRQQLLNLARHQAASGVGSGAIESLSTIQRI,0.0926
15,HMKDYKSSLQERVQAVGGGQLIYRVNREEGPDHSKTFYMDLFLGDRLIGTGSGRNKKQAEQQAAKEAIERG,0.0941
16,HMKTVLDSLLRILDSKELDIVVLRHIVGLTLTEIAKEKDMKKGTVFWMYNRAVKKLRLESERMGL,-2.11
17,HMSAQQTFLRDAMRRLNMTRDSFAERIGVRRRALDTWLLPEDSSEYRTMPSIVEKFVGEILGREA,-0.453
18,HMKKVRIPDDPEEAYRKALKTAMNIVGYKDNTEFTLREKLSERGYSGETVDAVAEFMKSKGYV,0.245
19,HMNPGNTESFPVYQKRLGEIIQTLAGKKGQDINSPEVKELVGEYDFLTKQMFQLPDATSMVMEIATAYRN,0.0462
20,HMKLVTIPNVIGKTKEDAMKTLKDLGVTVTVETKESEKDDGTVIAQSKAEGTKLTAGENVTITVSKKKK,0.139
21,HMNRNEFMERLEYLLSDIPQEEKADAIAYYRDYLEEAGDDAGKAIQDFGSPERIAAMIRSELAG,-0.0703
22,HMVLALRGIVQGGAEPLVILSDGRTSQSLAVGERFLAYEVVEIGRTGVRLRGPEGEIWLAMASF,-0.322
23,HMDEILHHPSYRAIYEYMLDHKHVKTKDIAALLNVKEPRARQLLKEMIDKHFIIALGSNRNREYELL,-0.495

row,Sequence,soluble fraction (log2)
1,HMILNDRSELLDVVKRVIAANPASVADYRKGKKKVLGFLVGQAMKETKGQADPRILNELFLQELGEN,0.0223
2,HMTVDIADALRVLGLSDAPDWSDVRAAHRRAIVRTHPDAGGSAGDAARVNQAFDLLRKISGNGERPIPG,0.154
3,HMPESETIMVDVKGAVQSEGVYELPSTARVNDAIEAAGGFSDQADKKSVNLAQKLSDEAVVYVASQGENV,0.207
4,HMQETALANFETNEGVQKVKQYVQENVPSLRGSNIVGVWTSYTPEGLTNYRTRFLTQDGQFVEVNLAYQ,0.036
5,HMGQLIGKEEAKQIALSRAGVAEGDISRYESELDTDDGKTKYEISFHVGRVEYDIEINAVTGAVEKFEMDN,0.131
6,HMGKSKAAQSSLVRSIMHQISDKNRGPMPLSEIIDRASIQSIDEAIVRSLVSRMKEQGEIYEPSLGTYEF,-0.209
7,HMRNNKLRRANKLKTEFENLPHIGKKRAHVLLKAFGSTENLKMTTAQALSEAAKISLKQAEEVLEAVRG,-0.0475
8,HMLIPTISVTKEGQLRFENIPVSWEELGTRLRDVSDLDKIKIYADAESDALTISEIMKTAANVGIVQFVLV,-0.578
9,HMDTSADEVKQLIASFVEQEDKRKPLSDQKIVELLAEKEQKISRRTVAKYRDALNIPSSSKRKRF,0.0434
10,HMLRVVSTRQAFDIVRGWADAHPQDPEHNKTLDELEELAKKEVWDDWSRTNEIAERLNALLVSIGANVRTA,-0.742
11,HMAQVSDTGELEGVVDGVLAANAKSVADFQAGKENAFQYLIGQVMKETKGKANPEVVATLLRTKLS,-0.382
12,HMTLSHAINRLRLNANMSQEQFAGLFHVSQQSVQKWESGDSVPELSKLIAIAKHFGISLDALILGN,-0.614
13,HMDTITMAGERYAVSDLEKVSGDIFEKAFGFEIDPKTADAKDVLPTMPKSDVDLFKKLSGIKP,0.19
14,HMDPIATLTPREREVLSLMAEGRSNGAIAAALVVGDGAVEKHVSNIFQKLELTPAEGDHRRVLAVLRWLE,-0.901
15,HMDFTISDADFHRLVQFIQQNYGVALSKKRQLISSRLSHSLRELGYKDFRTFLEHLFSTRDPADLELVLNK,-0.989
16,HMDSIGTQIRKLREEAEMPLRKLSALLDIDQSTLSKIERDERRANTQMIEQIAKIFKVNKEQLLVA,-0.926
17,HMNMRVLSEQPNKKSYQDGNLRLKVFGASFKKSDILNEALNQARVEETGLQIPKLLEVKQIDGQWTIVTE,-0.0363
18,HMQISDDGFILKIINEVVAENPKSISDYISGKEAAVGFLVGQIMKKTRGKANPKLVNEMLITELAKLKN,-0.0439
19,HMSGKWSILILHALEQGPKRFNVLHRELSGITQATLTKQLRQLEEDGIILRKAYPQIPPKVEYQLTEIG,-1.74
20,HMNLGNLLKIYRKNSLLTQQQVADALNINRTTYTYYETGKTEPSIDTLHKLIKIFGITYDDLL,-2.7
21,HMTRETTQAWWEARQTLPSGEQRSAASLSQEASHVRRFYRWAMQQGLTDRNPADWLPDVRQK,-0.232
22,HMRRPRGVFNLVPGKRFGFITPDGGGEDVFAHLANVRAGHVAEDRNAVEYGIGRGPDGRDQAVDIVPMP,-0.128
